# Results: a protein production outcome set (Wang et al. 2014)
# Test: label from the status in PepcDB records
row,Sequence,protein production
1,MDFLPIFVIIASVMTAVSVYLIYLVKKGINGIGFLLVLYLSGSMLTMFISLSIALSNTALTTEILALTVNTAYMIVGLVSILLLGASRRKIESRKWYTVLLFSLLMTISEAVMGESFYSILTKSIGNPLIGTENYWFYAVMLAEMTFTLVYSFNSLTRQIRNYLLVTLPIMVVSPVILPTFSIWLSSLLMIVATIIIYDTLYRDRLKKTQETFTSLELMLIFTLMMAGIFTYYVTSSWYLYDISMILGMTWFIYRAIQGPSSIKGNYLRDSRWTFAFVLMTFVMEWFMGAVLDFASSYFSPGVEGFISSLPLGFVNPFSYFGAGALFDFLSIFGSVTGSVWFLVMMGLEMGTLAIFRIKEVRLRENRIRLALMVSAFAIYAVYIPSFSPLASKIPYIPYMWSMGLGTLGPVSTDYLLSGIVGTYVLSAVLSFLFGSRQICSVTCTAPTMYQGTFYNSLKVYNRTSSFARKTLSSKLRPWYKLIAIAVWSSLLAFAVISYFDQKGILNITIFGNDPTMFLYSFYFNFLWYVVFISIPFSGNYACVTQGWCSWGTFNQFFGGLGLFRLKVKDPELCVKCETKACSKACPVGNTDLPGNFIKKGEFKSSRCIGVGDCAEACPYDNIMFYDVRSWLKEKIKGDKM,failed
2,MYPDLVHLGGADKYFEEILEIVNKIKLFGDFSNEEVRYLCSYMQCYAAPRDCQLLTEGDPGDYLLLILTGEVNVIKDIPNKGIQTIAKVGAGAIIGEMSMIDGMPRSASCVASLPTDFAVLSRDALYQLLANMPKLGNKVLIRLLQLLTARFRESYDRILPKTLGELI,not failed
3,MKRKMLKRLLTSAFACMFIANGLITTTVRAVGPKTGEENQVLVPNLNPTPENLEVVGDGFKITSSINLVGEEEADENAVNALREFLTANNIEINSENDPNSTTLIIGEVDDDIPELDEALNGTTAENLKEEGYALVSNDGKIAIEGKDGDGTFYGVQTFKQLVKESNIPEVNITDYPTVSARGIVEGFYGTPWTHKDRLDQIKFYGENKLNTYIYAPKDDPYHREKWREPYPENEMQRMQELIDASAENKVDFVFGISPGIDIRFDGEAGEEDFNHLIAKAESLYDMGVRSFAIYWDDIQDKSAAKHAQVLNRFNEEFVKAKGDVKPLITVPTEYDTGAMVSNGQPRTYTRIFAETVDPSIEVMWTGPGVVTNEIPLSDAQLISGIYNRNMAVWWNYPVTDYFKGKLALGPMHGLDKGLNQYVDFFTVNPMEHAELSKISIHTAADYSWNMDNYDYDKAWNRAIDMLYGDLAEDMKVFANHSTRMDNKTWAKSGREDAPELRAKMDELWNKLSSKEDASALIEELYGEFARMEEACNNLKANLPEVALEECSRQLDELITLAQGDKASLDMIVAQLNEDTEAYESAKEIAQNKLNTALSSFAVISEKVAQSFIQEALSFDLTLINPRTVKITASSEETSGENAPASFASDGDMNTFWHSKWSSPAHEGPHHLTLELDNVYEINKVKYAPRQDSKNGRITGYKVSVSLDGENFTEVKTGTLEDNAAIKFIEFDSVDAKYVRLDVTDSVSDQANGRGKFATAAEVNVHGKLKEAAEVTGSVSLEALEEVQVGENIEVGVGIDELVNAEAFAYDFTLNYDENAFEYVEAISDDGVFVNAKKIEDGKVRVLVSSLTGEPLPAKEVLAKVVLRAEAKTEGSNLSVTNSSVGDGEGLVHEIAGTEKTVNIIEGTSPEIVVNPVRDFKASEINKKNVTVTWTEPETTEGLEGYILYKDGKKVAEIGKDETSYTFKKLNRHTIYNFKIAAKYSNGEVSSKESLTLRTAR,failed
4,MDDSYMMVPMRRKRSQCDLAQMVQAIEEYDGSTQCEIDIDECASHPCKNGATCIDQPGNYFCQCVPPFKVFNFDGISSTSVQEFYHCEFGPCKASDSCENGAVRGEKMDLEMFPLEFRCQCASFSGPRCEINVNECSSSPCLHGYCYDMVDGFSCLCNPGYVGIRCEQDIDDCILNACEHNSTCKDLHLSYQCVCLSDWEGNFCEQESNECKMNPCKNNSTCTDLYKSYRCECTSGWTGQNCSEEINECDSDPCMNGGLCHESTIPGQFVCLCPPLYTGQFCHQRYNLCDLLHNPCRNNSTCLALVDANQHCICREEFEGKNCEIDVKDCLFLSCQDYGDCEDMVNNFRPGFSGSLCEIEINECSSEPCKNNGTCVDLTNRFFCNCEPEYHGPFCELDVNKCKISPCLDEENCVYRTDGYNCLCAPGYTGINCEINLDECLSEPCLHDGVCIDGINHYTCDCKSGFFGTHCETNANDCLSNPCLHGRCTELINEYPCSCDADGTSTQCKIKINDCTSIPCMNEGFCQKSAHGFTCICPRGYTGAYCEKSIDNCAEPELNSVICLNGGICVDGPGHTFDCRKACLYNCDNAKTRQESKELNKQQD,failed
5,MHTALINHIRKFIFLTDEDAGTLSAFFQLKKVRKKETLLKTGEICRINYFVVKGCLRLFFIDEKGIEQTTQFAIENWWLSDYMAFQKQQPADFYIQSVENCELLSITYTEQENLFERIPALERYFRLVYQKSFAAAQLRSKFQHMYSKEEQYHNFSSRFPEFIQRVPQYLLASYLGFTPEYLSEIRKKYIS,not failed
